Reference: patent publication US20150272076

What was measured:
Assay in all cases: cell_activity
[1] = tested on: XylT_T03 TALEN left monomer (synthetic (TAL effector-FokI-type nuclease)?); settings: pair activity on full site SEQ 64, yeast 37C; 0.7 at 30C; protoplast NHEJ 34.4% XylT1, 28.2% XylT2 (Table 3)
[2] = tested on: FucT2_T01 TALEN left monomer (synthetic (TAL effector-FokI-type nuclease)?); settings: pair activity on full site SEQ 67, yeast 37C; 0.8 at 30C
[3] = tested on: FucT2_T01 TALEN right monomer (synthetic (TAL effector-FokI-type nuclease)?); settings: pair activity on full site SEQ 67, yeast 37C; 0.8 at 30C
[4] = tested on: XylT_T03 TALEN right monomer (synthetic (TAL effector-FokI-type nuclease)?); settings: pair activity on full site SEQ 64, yeast 37C; 0.7 at 30C; protoplast NHEJ 34.4% XylT1, 28.2% XylT2 (Table 3)
[5] = tested on: FucT1_T04/FucT2_T04 TALEN left monomer (synthetic (TAL effector-FokI-type nuclease)?); settings: pair activity on SEQ 70 and SEQ 71, yeast 37C; 0.5 at 30C
[6] = tested on: FucT2_T02 TALEN left monomer (synthetic (TAL effector-FokI-type nuclease)?)
[7] = tested on: FucT1_T02 TALEN left monomer (synthetic (TAL effector-FokI-type nuclease)?)
[8] = tested on: XylT_T04 TALEN left monomer (synthetic (TAL effector-FokI-type nuclease)?); settings: pair activity on full site SEQ 65, yeast 37C; 0.9 at 30C; protoplast NHEJ 73.8% XylT1, 63.9% XylT2 (Table 3)
[9] = tested on: FucT1_T01 TALEN right monomer (synthetic (TAL effector-FokI-type nuclease)?); settings: pair activity on full site SEQ 66, yeast 37C; 0.6 at 30C
[10] = tested on: FucT1_T04/FucT2_T04 TALEN right monomer (synthetic (TAL effector-FokI-type nuclease)?); settings: pair activity on SEQ 70 and SEQ 71, yeast 37C; 0.5 at 30C
[11] = tested on: FucT1_T02/FucT2_T02 TALEN right monomer (synthetic (TAL effector-FokI-type nuclease)?); settings: pair activity with either left monomer (SEQ 68 or 69), yeast 37C; 0.7 at 30C
[12] = tested on: FucT1_T01 TALEN left monomer (synthetic (TAL effector-FokI-type nuclease)?); settings: pair activity on full site SEQ 66, yeast 37C; 0.6 at 30C

Sequence: TTCTTGTTTCTCTCTTC (double strand) [XylT_T03 target 1 (SEQ 49)]
- activity (relative to I-SceI) [1]: 0.9

Sequence: TGAGATCGTCGTCAAAT (double strand) [FucT2_T01 target 1 (SEQ 55)]
- activity (relative to I-SceI) [2]: 0.9

Sequence: GATAAACAATGGCGCAA (double strand) [FucT2_T01 target 2 (SEQ 56, printed as top strand)]
- activity (relative to I-SceI) [3]: 0.9

Sequence: ATCACTCTCTATCTCTA (double strand) [XylT_T03 target 2 (SEQ 50, printed as top strand)]
- activity (relative to I-SceI) [4]: 0.9

Sequence: TTGCCTCTGTTCGTTGC (double strand) [FucT_T04 target 1 (SEQ 62)]
- activity (relative to I-SceI) [5]: 0.6

Sequence: TTCAAACGCACCCAATA (double strand) [FucT1_T02 target 1 (SEQ 57)]
- activity ([6]; FucT2_T02 pair on endogenous FucT1 (1-bp mismatch in left site), N. benthamiana protoplasts, control 0.79%): 46.5 % NHEJ
- activity (relative to I-SceI) ([7]; pair activity on full site SEQ 68, yeast 37C, 0.7 at 30C, protoplast NHEJ 39.2% FucT1 (Table 3)): 0.9

Sequence: TCTCTTCGCTCTCAACT (double strand) [XylT_T04 target 1 (SEQ 51)]
- activity (relative to I-SceI) [8]: 0.9

Sequence: TTCAAACGCACCCGATA (double strand) [FucT2_T02 target 1 (SEQ 59)]
- activity (relative to I-SceI) ([6]; pair activity on full site SEQ 69, yeast 37C, 0.7 at 30C, protoplast NHEJ 45.0% FucT2 (Table 3)): 0.9
- activity ([7]; FucT1_T02 pair on endogenous FucT2 (1-bp mismatch in left site), N. benthamiana protoplasts, control 0.14%): 24.7 % NHEJ

Sequence: AATAAGCAATGGCGCAA (double strand) [FucT1_T01 target 2 (SEQ 54, printed as top strand)]
- activity (relative to I-SceI) [9]: 0.8

Sequence: TTTCTGGTTCGACTCGA (double strand) [FucT_T04 target 2 (SEQ 63, printed as top strand)]
- activity (relative to I-SceI) [10]: 0.6

Sequence: CTCTGTTCGTTGCCCTA (double strand) [FucT_T02 target 2 (SEQ 58, printed as top strand)]
- activity (relative to I-SceI) [11]: 0.9

Sequence: TGAGATCGGCGTCAAAT (double strand) [FucT1_T01 target 1 (SEQ 53)]
- activity (relative to I-SceI) [12]: 0.8
